This sample holds only a part of the variants without activity.
Assays:
biotinyl-Phe-oxazolone = experiment: self-aminoacylation, catalytic enhancement (BFO) (fold over background); higher = more active; k-Seq, kA / k0A0; sequences stand for … in GGGAAUGGAUCCACAUCUACGAAUUC…UUCACUGCAGACUUGACGAAGCUG
Outline: (§1)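 Catalytic enhancement equals the median kA over the uncatalyzed rate, the latter read from the low-activity peak of a bimodal Gaussian fit. Values of kA came from fitting each sequence's fraction reacted to a pseudo-first-order model, with 1000 bootstraps. Reacted RNA was captured with streptavidin and quantified by triplicate qPCR and Illumina sequencing after 90 minutes at room temperature with 2–1250 μM biotinyl-aminoacyl-oxazolone and 0.43 μM mutagenized RNA pools bearing a 21-nt variable region.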

biotinyl-Ile-oxazolone = experiment: self-aminoacylation, catalytic enhancement (BIO) (fold over background); higher = more active; k-Seq, kA / k0A0; sequences stand for … in GGGAAUGGAUCCACAUCUACGAAUUC…UUCACUGCAGACUUGACGAAGCUG
Outline: as §1

biotinyl-Met-oxazolone = experiment: self-aminoacylation, catalytic enhancement (BMO) (fold over background); higher = more active; k-Seq, kA / k0A0; sequences stand for … in GGGAAUGGAUCCACAUCUACGAAUUC…UUCACUGCAGACUUGACGAAGCUG
Outline: as §1

biotinyl-Trp-oxazolone = experiment: self-aminoacylation, catalytic enhancement (BWO) (fold over background); higher = more active; k-Seq, kA / k0A0; sequences stand for … in GGGAAUGGAUCCACAUCUACGAAUUC…UUCACUGCAGACUUGACGAAGCUG
Outline: as §1

biotinyl-Val-oxazolone = experiment: self-aminoacylation, catalytic enhancement (BVO) (fold over background); higher = more active; k-Seq, kA / k0A0; sequences stand for … in GGGAAUGGAUCCACAUCUACGAAUUC…UUCACUGCAGACUUGACGAAGCUG
Outline: as §1

biotinyl-Leu-oxazolone = experiment: self-aminoacylation, catalytic enhancement (BLO) (fold over background); higher = more active; k-Seq, kA / k0A0; sequences stand for … in GGGAAUGGAUCCACAUCUACGAAUUC…UUCACUGCAGACUUGACGAAGCUG
Outline: as §1

Sequence | self-aminoacylation (biotinyl-Phe-oxazolone) | self-aminoacylation (biotinyl-Ile-oxazolone) | self-aminoacylation (biotinyl-Met-oxazolone) | self-aminoacylation (biotinyl-Trp-oxazolone) | self-aminoacylation (biotinyl-Val-oxazolone) | self-aminoacylation (biotinyl-Leu-oxazolone)
AUUACCCGGGUCAUCGAGAGA [Fam2.1 aminoacylation ribozyme variant] | 0.475 | 1.22 | 1.05 | 1.24 | 1.22 | 1.01
AUUACCCGGGUCAUCGAGUAA [Fam2.1 aminoacylation ribozyme variant] | 8.59 | 2.05 | 1.91 | 3.56 | 1.58 | 1.54
AUUACCCGGGUCAUUGAGUGA [Fam2.1 aminoacylation ribozyme variant] | 56.8 | 4.35 | 9.41 | 10.8 | 4.83 | 8.98
AUUACCCGGGUCUUCGAGUGA [Fam2.1 aminoacylation ribozyme variant] | 44.4 | 4.5 | 7.15 | 8.46 | 4.57 | 8.21
AUUACCCGGUUCAUCGAGUGA [Fam2.1 aminoacylation ribozyme variant] | 16.5 | 3.67 | 6.36 | 7.78 | 4.41 | 6.51
AUUACCCUAGACAUCGAGUGA [Fam2.1 aminoacylation ribozyme variant] | 37 | 3.77 | 8.71 | 9.09 | 4.07 | 7.96
AUUACCCUAGCCAUCGAGUGA [Fam2.1 aminoacylation ribozyme variant] | 9 | 2.02 | 3.86 | 4.91 | 2.13 | 3.46
AUUACCCUAGUCACCGAGUGA [Fam2.1 aminoacylation ribozyme variant] | 23.1 | 2.89 | 6.48 | 7.33 | 3.27 | 6.48
AUUACCCUAGUCAGCGAGUGA [Fam2.1 aminoacylation ribozyme variant] | 23.4 | 3.38 | 5.1 | 6.79 | 3.38 | 5.18
AUUACCCUAGUCAUCAAGUGA [Fam2.1 aminoacylation ribozyme variant] | 11.2 | 2.05 | 3.73 | 4.95 | 2.58 | 3.66
AUUACCCUAGUCAUCGAGCGA [Fam2.1 aminoacylation ribozyme variant] | 0.894 | 1.3 | 1.38 | 1.21 | 1.32 | 1.2
AUUACCCUAGUCAUCGAGUCA [Fam2.1 aminoacylation ribozyme variant] | 0.47 | 0.724 | 0.631 | 0.546 | 0.893 | 0.674
AUUACCCUAGUCAUCGAGUGA [Fam2.1 aminoacylation ribozyme variant] | 18 | 2.89 | 4.92 | 6.3 | 3.05 | 5.12
AUUACCCUAGUCAUCGCGUGA [Fam2.1 aminoacylation ribozyme variant] | 54.5 | 4.26 | 8.29 | 10.1 | 5.09 | 9.91
AUUACCCUAGUCAUUGAGUGA [Fam2.1 aminoacylation ribozyme variant] | 25.9 | 3.69 | 6.69 | 9.31 | 3.86 | 6.93
AUUACCCUAGUUAUCGAGUGA [Fam2.1 aminoacylation ribozyme variant] | 50.7 | 3.77 | 8.68 | 11.1 | 3.83 | 8.3
AUUACCCUCGUCAGCGAGUGA [Fam2.1 aminoacylation ribozyme variant] | 9.66 | 2.39 | 3.5 | 4.57 | 2.58 | 4.33
AUUACCCUCGUCAUCGAGUGA [Fam2.1 aminoacylation ribozyme variant] | 8.82 | 2.08 | 2.98 | 3.22 | 2.07 | 3.09
AUUACCCUCGUCAUCGAGUGG [Fam2.1 aminoacylation ribozyme variant] | 0.728 | 0.948 | 1.31 | 0.389 | 0.932 | 1.46
AUUACCCUCGUCAUCGGGUGA [Fam2.1 aminoacylation ribozyme variant] | 24.1 | 2.39 | 3.84 | 3.81 | 2.77 | 4.5
AUUACCCUCGUCAUCGUGUGA [Fam2.1 aminoacylation ribozyme variant] | 1.22 | 1.15 | 1.47 | 1.65 | 1.22 | 1.47
AUUACCCUCGUCAUCUAGUGA [Fam2.1 aminoacylation ribozyme variant] | 9.86 | 2.3 | 3.26 | 4.43 | 2.7 | 3.57
AUUACCCUCGUUAUCGAGUGA [Fam2.1 aminoacylation ribozyme variant] | 91.9 | 5.66 | 13.8 | 17 | 5.63 | 13.9
AUUACCCUGAUCAACGAGUGA [Fam2.1 aminoacylation ribozyme variant] | 66.4 | 6.3 | 14.6 | 18.5 | 6.16 | 15
AUUACCCUGAUCAUAGAGUGA [Fam2.1 aminoacylation ribozyme variant] | 70.5 | 6.32 | 15.8 | 17.7 | 6.89 | 15.1
AUUACCCUGAUCAUCGAAUGA [Fam2.1 aminoacylation ribozyme variant] | 0.602 | 0.936 | 0.93 | 0.561 | 0.871 | 0.898

Sequence | self-aminoacylation (biotinyl-Phe-oxazolone) | self-aminoacylation (biotinyl-Ile-oxazolone) | self-aminoacylation (biotinyl-Met-oxazolone) | self-aminoacylation (biotinyl-Trp-oxazolone) | self-aminoacylation (biotinyl-Val-oxazolone) | self-aminoacylation (biotinyl-Leu-oxazolone)
AUUACCCUGAUCAUCGAGUGA [Fam2.1 aminoacylation ribozyme variant] | 21.8 | 3.8 | 7.96 | 9.57 | 4.15 | 7.82
AUUACCCUGAUCAUCGAGUUA [Fam2.1 aminoacylation ribozyme variant] | 0.549 | 1.02 | 0.824 | 0.61 | 1.11 | 0.958
AUUACCCUGAUCAUCGGGUGA [Fam2.1 aminoacylation ribozyme variant] | 67.3 | 5.24 | 9.51 | 10.7 | 5.38 | 9.62
AUUACCCUGAUCCUCGAGUGA [Fam2.1 aminoacylation ribozyme variant] | 8.63 | 2.35 | 3.7 | 3.91 | 2.52 | 3.73
AUUACCCUGAUCUUCGAGUGA [Fam2.1 aminoacylation ribozyme variant] | 15.7 | 2.56 | 4.57 | 6.11 | 2.74 | 5.04
AUUACCCUGCACAUCGAGUGA [Fam2.1 aminoacylation ribozyme variant] | 29.8 | 3.01 | 6.87 | 8.38 | 3.65 | 7.49
AUUACCCUGCUAAUCGAGUGA [Fam2.1 aminoacylation ribozyme variant] | 11.2 | 1.44 | 2.41 | 3.01 | 1.58 | 2.41
AUUACCCUGCUCAUCGAGUGG [Fam2.1 aminoacylation ribozyme variant] | 0.52 | 0.831 | 1 | 0.578 | 0.81 | 1.09
AUUACCCUGCUCAUUGAGUGA [Fam2.1 aminoacylation ribozyme variant] | 19.1 | 2.27 | 4.57 | 5.58 | 2.39 | 4.39
AUUACCCUGGACAUCGAGUGC [Fam2.1 aminoacylation ribozyme variant] | 1.19 | 0.87 | 0.807 | 0.573 | 0.852 | 0.793
AUUACCCUGGACAUCGAGUUA [Fam2.1 aminoacylation ribozyme variant] | 0.728 | 0.805 | 0.682 | 0.639 | 0.75 | 0.772
AUUACCCUGGACAUCGUGUGA [Fam2.1 aminoacylation ribozyme variant] | 10.9 | 1.39 | 2.41 | 2.5 | 1.44 | 2.45
AUUACCCUGGACAUUGAGUGA [Fam2.1 aminoacylation ribozyme variant] | 69.4 | 4.56 | 11.3 | 13.4 | 4.58 | 10.4
AUUACCCUGGCCAUCGAGCGA [Fam2.1 aminoacylation ribozyme variant] | 9.68 | 2.02 | 1.61 | 2.39 | 1.93 | 1.66
AUUACCCUGGCCAUCGAUUGA [Fam2.1 aminoacylation ribozyme variant] | 0.28 | 0.753 | 1.03 | 0.913 | 0.974 | 0.851
AUUACCCUGGGCAUCGAGUCA [Fam2.1 aminoacylation ribozyme variant] | 0.615 | 0.946 | 0.719 | 0.708 | 0.768 | 0.72
AUUACCCUGGGCAUCGAGUGA [Fam2.1 aminoacylation ribozyme variant] | 21.4 | 2.57 | 4.85 | 5.82 | 2.75 | 5.1
AUUACCCUGGGCAUCGAGUUA [Fam2.1 aminoacylation ribozyme variant] | 1.15 | 0.909 | 0.642 | 0.678 | 1.11 | 0.805
AUUACCCUGGGCAUCGAUUGA [Fam2.1 aminoacylation ribozyme variant] | 0.38 | 0.645 | 0.593 | 0.622 | 0.648 | 0.749
AUUACCCUGGGCAUCUAGUGA [Fam2.1 aminoacylation ribozyme variant] | 44.6 | 3 | 6.2 | 7.33 | 3.38 | 7.13
AUUACCCUGGUAAACGAGUGA [Fam2.1 aminoacylation ribozyme variant] | 150 | 7.26 | 19.8 | 20.1 | 7.77 | 19.1
AUUACCCUGGUAAUCGAGGGA [Fam2.1 aminoacylation ribozyme variant] | 0.55 | 1.1 | 0.924 | 0.832 | 1.04 | 0.931
AUUACCCUGGUAAUCGAGUGA [Fam2.1 aminoacylation ribozyme variant] | 54.5 | 3.7 | 8.63 | 9.96 | 3.82 | 8.46
AUUACCCUGGUCAAAGAGUGA [Fam2.1 aminoacylation ribozyme variant] | 45.6 | 4 | 8.35 | 10.5 | 4.26 | 8.08
AUUACCCUGGUCAACAAGUGA [Fam2.1 aminoacylation ribozyme variant] | 23.2 | 3.48 | 7.83 | 8.34 | 3.85 | 6.6

— the supplement of paper PMC9233669
